Results: the Human Domainome abundance scans (Beltran et al. 2025)

B1: Transcription intermediary factor 1-beta, residues 620 to 671; numbered along this chain, Q13263 (parent)
chain: TLDDSATICRVCQKPGDLVMCNQCEFCFHLDCHLPALQDVPGEEWSCSLCHV

Variants of: B1
Assay: abundance fitness (aPCA) (normalised: wild type 0, dead -1); higher = more abundant; growth selection in yeast, the domain comes from the species named
Settings: Homo sapiens

Abundance fitness of substitutions, site by site:
R10: T -0.037 | V -0.143 | W -0.574 | Y -0.257
V11: A -0.131 | C -0.39 | D -0.484 | E -0.072 | G -0.221 | H -0.659 | I -0.064 | K -0.162 | L 0.009 | M 0.059 | N -0.142 | P -0.779 | Q -0.136 | R -0.128 | S -0.312 | W -0.409 | Y -0.515
C12: Y -1
Q13: A -0.322 | C 0.091 | D 0.144 | E 0.092 | F 0.042 | G -0.016 | H 0.062 | I -0.265 | K -0.032 | L -0.084 | M -0.002 | N 0.128 | P -0.82 | R -0.025 | S 0.036 | T -0.085 | V -0.518 | W -0.063 | Y -0.111
K14: F -0.424 | L -0.513 | N -0.408 | S -0.35
P15: A 0.005 | C -0.646 | D -0.233 | E -0.01 | F -0.787 | G -0.126 | H -0.132 | I -0.359 | K -0.193 | L -0.684 | M -0.168 | N -0.396 | Q -0.559 | S -0.022 | T -0.546 | W -0.771 | Y -0.255
G16: A -0.639 | C -1.11 | D 0.076 | E -0.307 | F -0.524 | H -0.214 | I -0.534 | K -0.258 | L -0.432 | M -0.553 | N 0.137 | P -0.945 | Q -0.477 | R -0.389 | S -0.091 | T -0.754 | V -0.827 | W -0.791 | Y -0.879
D17: A -0.639 | C -0.151 | E -0.119 | F -0.099 | G 0.076 | H 0.01 | I -0.409 | K -0.018 | L -0.301 | M -0.364 | N -0.256 | P -0.604 | Q -0.186 | R -0.062 | S -0.004 | T -0.074 | V -0.355 | W -0.522 | Y -0.512
L18: A -0.559 | C -0.317 | E -0.374 | F -0.697 | G -0.642 | H -0.664 | I -0.371 | K -0.636 | M -0.599 | N -0.662 | P -0.729 | Q -0.483 | R -0.889 | S -0.789 | T 0.162 | W -0.834 | Y -0.632
V19: A -0.58 | C -0.536 | D 0.025 | E -0.519 | F -0.311 | G -0.852 | H 0.116 | I 0.008 | L -0.171 | M -0.157 | N -0.556 | P -0.943 | Q -0.402 | R -0.364 | S -0.613 | T -0.314 | W 0
M20: A -0.312 | C -0.225 | D -0.574 | E -0.304 | F -0.192 | G -0.29 | H -0.755 | I -0.379 | K -0.354 | L -0.391 | N -0.337 | P 0.067 | R 0.003 | S -0.112 | V -0.322 | W -0.73 | Y -0.296
C21: A -0.995 | D -0.575 | E -0.434 | F -0.962 | G -0.871 | H -0.445 | I -0.807 | L -0.837 | M -1.24 | N -0.565 | P -0.697 | Q -0.8 | S -0.968 | T -0.95 | V -0.826 | W -1.14
